Key:
KGF (hKGF) [1] = target: T1, KGF (hKGF) (Homo sapiens, UniProt P21781 P21781:32-194); experiment: filter; DPBS 37 C; settings: tags: Upstate Biotechnology
T1 sequence: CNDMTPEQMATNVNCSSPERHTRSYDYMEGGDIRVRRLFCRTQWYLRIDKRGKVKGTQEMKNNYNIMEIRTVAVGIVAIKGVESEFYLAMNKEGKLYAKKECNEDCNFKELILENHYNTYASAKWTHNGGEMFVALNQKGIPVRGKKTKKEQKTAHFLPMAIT

KGF (hKGF) [2] = target: T1, KGF (hKGF); experiment: competition; PC-3 assay; settings: tags: Upstate Biotechnology
Protocol: PC-3 cells were plated in 24-well plates at about 10^5 cells per well. Following growth for […], the cells were serum starved for 24 hours, washed two times with 500 µl of cold DPBS, and then incubated with 500 µl binding buffer (BB1; DPBS, 0.5 mM MgCl_2, 0.2% BSA. 0.02% sodium azide) containing various concentrations of ^125I-labeled KGF ranging from 0 to 0.8 nM. Following 3–3.5 hour incubation at 4° C., the binding mixes were aspirated and the well-adhered cells were washed two times with 1 ml BB1 and once with 1 ml BB1 supplemented with 0.5M NaCl. The remaining bound labeled hKGF was solubilized in 600 µl 0.5% SDS/0.1M NaOH and counted in a gamma counter (Beckmann). Nonspecific binding was determined in the presence of 100 fold molar excess of unlabeled hKGF. For competition assays, the labeled hKGF was kept constant at 0.3 nM, and varying concentrations of competitor molecules were included in the binding reactions ranging from 0–1,000 nM. Binding curves were fitted to the equation: […]
A subset of these ligands was tested on the NIH3T3/FGFR-2. In determining the Ki values, it was assumed that 3T3 cells have 500,000 binding sites per cell and PC-3 cells have 5,000 binding sites per cell.

TGF-beta1 [3] = target: T2, TGF-beta1 (Homo sapiens, UniProt P01137 P01137:279-390); experiment: filter; n=3; KRH buffer 37 C; IC50 25 ± 14 nM in PAI-luciferase assay; settings: tags: Genentech or R&D Systems; chain copies: 2
T2 sequence (P01137 279-390, one chain of several): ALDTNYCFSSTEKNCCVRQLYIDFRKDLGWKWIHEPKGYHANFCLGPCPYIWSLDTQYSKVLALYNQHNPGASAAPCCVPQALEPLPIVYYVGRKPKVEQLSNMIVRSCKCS

TGF-beta1 [4] = target: T2, TGF-beta1; experiment: cell_activity; second value 103 nM; settings: tags: Genentech; chain copies: 2
Protocol: (§1) Mink lung epithelial cells (MLEC) carrying the Pai1/luc construct were maintained in DME containing 10% fetal bovine serum and 400 μg/ml G418. MLEC-Pai1/luc cells were plated at 3.2×10^4 cells per well in a 96 well Falcon plate, in 100 μl of DME+10% fetal bovine serum overnight. Media was made from autoclaved water. The cells were washed three times (100 μl) in serum free DME plus Solution A (1:1). Solution A is 30 mM Hepes pH 7.6, 10 mM glucose, 3.0 mM KCl, 131 mM NaCl, 1.0 mM disodium phosphate. Samples (100 μl) were added in DME containing 20 mM Hepes pH 7.5, and 0.1% BSA (Fluka, radioimmunoassay grade). All samples were in triplicate. After six hours at 37° C. in a 5% CO_2 incubator the media was removed and cells were washed three times (100 μl each) in cold PBS. Lysis buffer (75 μl) (Analytical Luminescence Laboratory) was added and the plates incubated on ice for 20 min. The plates were sealed and frozen at −80° C. until assayed. Samples (25 μl) were assayed for luciferase activity with the Enhanced Luciferase Assay Kit from Analytical Luminescence Laboratory (San Diego, Calif., USA) according to the manufacturers instructions using the Berthold Microlumat LB96P luminometer.
(§2) Ligands tested for inhibition of TGFβ1 activity were tested at a minimum of five concentrations. […]

PDGF-AB [5] = target: T3, PDGF-AB (Homo sapiens, UniProt P04085;P01127 P04085:87-211,P01127:82-190); experiment: filter; 20t binds within factor 2 of full length; settings: tags: R&D Systems
T3 sequence (P01127 82-190, chain 2 of 2, other chains not shown): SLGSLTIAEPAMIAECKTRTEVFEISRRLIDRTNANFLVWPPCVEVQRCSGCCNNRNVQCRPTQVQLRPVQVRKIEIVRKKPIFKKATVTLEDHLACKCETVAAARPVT
Protocol: (§3) D. Determination of the Apparent Equilibrium Dissociation Constants and the Dissociation Rate Constants The binding of ssDNA ligands at low concentrations to varying concentrations of PDGF was determined by the nitrocellulose filter binding method as described (Green et al., (1995) *Chemistry and Biology* 2: 683–695). The concentrations of PDGF stock solutions (in PBS) were determined from the absorbance readings at […] using the following $e280$ values calculated from the amino acid sequences (Gill, S. C., and von Hippel, P. H. (1989) *Anal. Biochem.* 182: 319–326): 19,500 M^-1cm^-1 for PDGF-AA, 15,700 M^-1cm^-1 for PDGF-AB and 11,800 M^-1cm^-1 for PDGF-BB. ssDNA for all binding experiments were purified by electrophoresis on 8% (>80 nucleotides) or 12% (<40 nucleotides) polyacrylamide/7 M urea gels. All ssDNA ligands were heated at 90° C. in binding buffer at high dilution ($\approx$1 nM) for 2 min and cooled on ice prior to frier dilution into the protein solution. The binding mixtures were typically incubated for 15 min at 37° C. before partitioning on nitrocellulose filters.

TGF-beta1 [6] = target: T2, TGF-beta1; experiment: filter; boundary experiment; settings: tags: Genentech; chain copies: 2
PDGF-AA = PDGF-AA (Homo sapiens, UniProt P04085 P04085:87-211); experiment: filter; 37 C; comparable to random DNA; settings: tags: R&D Systems, E. coli, long form A-chain; chain copies: 2; label: 5'-32P; three-way helix junction
Protocol: as §3
(§4) The fraction of ^32P 5' end-labeled DNA ligands bound to varying concentrations of PDGF was determined by the nitrocellulose filter binding method. Minimal ligands tested were 20t (○), 36t (Δ), and 41t (□). […]

PDGF-AB [7] = target: T3, PDGF-AB; experiment: filter; 37 C, PBSM + 0.01% HSA; high affinity component; settings: tags: R&D Systems, E. coli; label: 5'-32P; three-way helix junction
Protocol: as §3, §4

PDGF-BB [8] = target: T4, PDGF-BB (Homo sapiens, UniProt P01127 P01127:82-190); experiment: as above; settings: tags: R&D Systems, E. coli; chain copies: 2; label: 5'-32P; three-way helix junction
T4 sequence (P01127 82-190, one chain of several): as the sequence (P01127 82-190, chain 2 of 2, other chains not shown) above
Protocol: as §3, §4

PDGF-BB [9] = target: T4, PDGF-BB; experiment: competition; 125I-PDGF-BB binding to PDGF alpha-receptor on PAE cells; settings: tags: R&D Systems; chain copies: 2; three-way junction
PDGF-AB [10] = target: T3, PDGF-AB; experiment: filter; thrombin aptamer control; settings: tags: R&D Systems, E. coli; predicted stem-loop
PDGF-BB [11] = target: T4, PDGF-BB; experiment: competition; no effect on receptor binding or mitogenesis; settings: tags: R&D Systems; chain copies: 2; stem-loop
Protocol: After incubation for 24 h at 37° C., ^3H-radioactivity incorporated into DNA was determined using a β-counter.

PDGF-AB [12] = target: T3, PDGF-AB; experiment: filter; 41t binds within factor 2 of full length; settings: tags: R&D Systems
Protocol: as §3

TGF-beta1 [13] = target: T2, TGF-beta1; experiment: cell_activity; second value 298 nM; settings: tags: Genentech; chain copies: 2
Protocol: as §1, §2

B1: 10F (ssRNA)
RNA: GGGAGGACGAUGCGGGACCAGAUGGCGGAUUUUUCAGCAAUCCUCCCCCCGCUGCCCAGACGACUCGCCCGA
modifications: 2'-F pyrimidines
Kd (KGF (hKGF) [1]): 0.47 nM

B2: 10F (K10F) (ssRNA)
RNA: GGGAGGACGAUGCGGGACCAGAUGGCGGAUUUUUCAGCAAUCCUCCCCCCGCUGCCCAGACGACUCGCCCGA
modifications: 2'-F pyrimidines
IC50 (KGF (hKGF) [2]): 30 nM

B3: lib3-13 (ssRNA)
RNA: GGGGGAGAACGCGGAUCCGAGCAAUCCCAGGCGCAUAGCUUCCGAGUAGACAGGAGGGAGGGGUGGAUGUGGCGUCUACUCGGUGUCGUGAAGCUUCGCUCUAGAUCUCCCUUUAGUGAGGGUUA
modifications: 2'-NH2 pyrimidines
Kd (TGF-beta1 [3]): 0.83 nM

B4: lib2-6-1 (ssRNA)
RNA: GGGGGAGAACGCGGAUCCUGUCUCCACCGCCGAUACUGGGGUUCCUGGGGCCCCUCCAUGCAGGAGGGGGGUGGUUCGGAGAAAGCUUCGCUCUAGAUCUCCCUUUAGUGAGGGUUA
modifications: 2'-NH2 U, 2'-F C
IC50 (TGF-beta1 [4]): 112 nM

B5: ligand 20 full length (ssDNA)
DNA: ATCCGCCTGATTAGCGATACTATGGGAGGGCGCGTTCTTCGTGGTTACTTTTAGTCCCGACTTGAGCAAAATCACCTGCAGGGG
binding result (PDGF-AB [5]): binds

B6: 47N (ssRNA)
RNA: GGGAGGACGAUGCGGGAAGGGUAGGAAGGUCAAGAGGAAACAGCGCUUCGGGGGUGCAGACGACUCGCCCGA
modifications: 2'-NH2 pyrimidines
Kd (KGF (hKGF) [1]): 1.76 nM

B7: lib3-13-(38-123) (ssRNA)
RNA: GCUUCCGAGUAGACAGGAGGGAGGGGUGGAUGUGGCGUCUACUCGGUGUCGUGAAGCUUCGCUCUAGAUCUCCCUUUAGUGAGGGU
binding result (TGF-beta1 [6]): binds

B8: 4N (ssRNA)
RNA: GGGAGGACGAUGCGGGUGGUGAAGAGGUACCGGAAUUGCUAAAGAUACCACGGCCCAGACGACUCGCCCGA
modifications: 2'-NH2 pyrimidines
Kd (KGF (hKGF) [1]): 0.75 nM

B9: 4N (K4N) (ssRNA)
RNA: GGGAGGACGAUGCGGGUGGUGAAGAGGUACCGGAAUUGCUAAAGAUACCACGGCCCAGACGACUCGCCCGA
modifications: 2'-NH2 pyrimidines
IC50 (KGF (hKGF) [2]): 70 nM

TGGGAGGGCGCGTTCTTCGTGGTTACTTTTAGTCCCG (ssDNA, 3'-3' inverted T) [20t]
Kd (PDGF-AA): 47 nM
Kd (PDGF-AB [7]): 0.147 nM
Kd (PDGF-BB [8]): 0.127 nM
IC50 (PDGF-BB [9]): ~1 nM

CAGTCCGTGGTAGGGCAGGTTGGGGTGACTTCGTGGAA (ssDNA, 3'-3' inverted T) [T39]
Kd (PDGF-AB [10]): 230 nM
binding result (PDGF-BB [11]): no binding

B10: lib3-13-79 (ssRNA)
RNA: GGGGGAGAACGCGGAUCCGAGCAAUCCCAGGCGCAUAGCUUCCGAGUAGACAGGAGGGAGGGGUGGAUGUGGCGUCUAC
binding result (TGF-beta1 [6]): binds

B11: ligand 41 full length (ssDNA)
DNA: ATCCGCCTGATTAGCGATACTCAGGGCACTGCAAGCAATTGTGGTCCCAATGGGCTGAGTACTTGAGCAAAATCACCTGCAGGGG
binding result (PDGF-AB [12]): binds

B12: lib2-6-1-81 (ssRNA)
RNA: GGGGGAGAACGCGGAUCCUGUCUCCACCGCCGAUACUGGGGUUCCUGGGGCCCCUCCAUGCAGGAGGGGGGUGGUUCGGAG
modifications: 2'-NH2 U, 2'-F C
IC50 (TGF-beta1 [13]): 201 nM
